Reference: doi:10.1101/2023.01.20.524964 (bioRxiv, 2023)
Where a chain is given by its changes, count along the chain named. Names may count otherwise. Values belong to the molecule of their own block, whether it stands above or below them.

Key:
[1] = target: Karyopherin-β2 (full length, GST tag removed) (UniProt Q92973); assay: ITC
Kapβ2(W373A) = target: T1, Kapβ2(W373A) (UniProt Q92973-2 1-890, W373A); assay: ITC
T1 sequence (looked up): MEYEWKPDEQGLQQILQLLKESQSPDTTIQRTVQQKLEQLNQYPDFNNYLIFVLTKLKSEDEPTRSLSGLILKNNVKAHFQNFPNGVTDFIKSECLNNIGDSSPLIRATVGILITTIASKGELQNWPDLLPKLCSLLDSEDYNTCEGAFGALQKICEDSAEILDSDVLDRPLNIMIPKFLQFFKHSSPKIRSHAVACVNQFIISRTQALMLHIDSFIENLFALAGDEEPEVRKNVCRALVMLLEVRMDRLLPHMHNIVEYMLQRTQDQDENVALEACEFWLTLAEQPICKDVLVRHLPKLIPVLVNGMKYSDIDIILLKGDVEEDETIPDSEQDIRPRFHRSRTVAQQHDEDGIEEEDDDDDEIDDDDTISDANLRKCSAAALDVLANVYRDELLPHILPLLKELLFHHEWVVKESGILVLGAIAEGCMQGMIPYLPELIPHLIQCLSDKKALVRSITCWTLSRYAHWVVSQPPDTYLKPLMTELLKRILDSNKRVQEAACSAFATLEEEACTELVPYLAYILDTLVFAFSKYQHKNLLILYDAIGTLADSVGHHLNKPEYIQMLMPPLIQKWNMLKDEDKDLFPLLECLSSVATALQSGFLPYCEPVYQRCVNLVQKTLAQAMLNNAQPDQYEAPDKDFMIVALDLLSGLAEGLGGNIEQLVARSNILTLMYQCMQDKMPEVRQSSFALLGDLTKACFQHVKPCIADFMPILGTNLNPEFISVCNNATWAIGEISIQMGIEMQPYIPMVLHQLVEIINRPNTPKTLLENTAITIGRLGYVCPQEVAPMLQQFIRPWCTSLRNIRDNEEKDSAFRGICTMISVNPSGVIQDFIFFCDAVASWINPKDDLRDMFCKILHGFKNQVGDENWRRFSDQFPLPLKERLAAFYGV

[2] = target: T2, Karyopherin-β2 (full length, GST tag removed) (UniProt Q92973-2 1-890); assay: ITC
T2 sequence (looked up): T1 sequence (looked up) with A373W

[3] = target: T2, Karyopherin-β2 (full length, GST tag …); assay: SEC

Chain of Karyopherin-β2 (full length, GST tag removed) (UniProt Q92973) (Q92973 9-898): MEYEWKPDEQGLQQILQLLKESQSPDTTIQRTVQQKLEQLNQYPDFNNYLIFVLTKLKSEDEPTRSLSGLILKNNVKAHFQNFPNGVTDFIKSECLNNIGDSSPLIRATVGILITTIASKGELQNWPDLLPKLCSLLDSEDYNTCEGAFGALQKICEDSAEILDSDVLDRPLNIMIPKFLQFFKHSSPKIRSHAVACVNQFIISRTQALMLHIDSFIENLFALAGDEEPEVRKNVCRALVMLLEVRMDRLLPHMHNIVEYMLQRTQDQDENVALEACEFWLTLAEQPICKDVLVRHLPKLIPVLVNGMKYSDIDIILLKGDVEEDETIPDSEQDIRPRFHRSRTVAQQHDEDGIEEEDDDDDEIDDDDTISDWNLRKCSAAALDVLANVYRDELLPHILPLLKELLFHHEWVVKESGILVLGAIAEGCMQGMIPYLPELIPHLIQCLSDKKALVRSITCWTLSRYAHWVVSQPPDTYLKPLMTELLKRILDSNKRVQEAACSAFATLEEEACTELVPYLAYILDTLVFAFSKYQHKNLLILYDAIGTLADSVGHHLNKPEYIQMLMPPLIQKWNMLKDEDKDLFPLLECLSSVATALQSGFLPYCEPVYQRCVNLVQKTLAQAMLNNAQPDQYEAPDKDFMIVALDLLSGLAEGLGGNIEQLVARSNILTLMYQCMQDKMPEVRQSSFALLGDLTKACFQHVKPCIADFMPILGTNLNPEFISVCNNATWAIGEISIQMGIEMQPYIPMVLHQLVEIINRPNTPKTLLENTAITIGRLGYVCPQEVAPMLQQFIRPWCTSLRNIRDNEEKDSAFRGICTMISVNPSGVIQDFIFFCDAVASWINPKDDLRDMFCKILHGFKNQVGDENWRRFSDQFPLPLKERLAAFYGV

Molecule: MBP-HNRNPH2 R212A (ITC) (from UniProt P55795 103-225) (domain or fragment)
- Kd [1]: 3200 nM

Molecule: HNRNPM PY-NLS (domain or fragment)
- Kd (Kapβ2(W373A)): 9 nM

B1: MBP-HNRNPH2(103-225) (domain or fragment, UniProt P55795 103-225, looked up)
chain: NSPDTANDGFVRLRGLPFGCSKEEIVQFFSGLEIVPNGMTLPVDFQGRSTGEAFVQFASQEIAEKALKKHKERIGHRYIEIFKSSRAEVRTHYDPPRKLMAMQRPGPYDRPGAGRGYNSIGRG
- Kd [2]: 50 nM
- Kd (Kapβ2(W373A)): 6100 nM

Further lines, results first:

- binding result [3]: binds
B2: HNRNPH2(103-225) (as used for SEC and cryo-EM) (domain or fragment, UniProt P55795 103-225, looked up)
chain: B1 chain
modifications: mild crosslinking with 0.025% glutaraldehyde in the cryo-EM sample

- fold decrease of affinity against wild type [2]: ~200 fold
B3: MBP-HNRNPH2(103-225) P209L (domain or fragment, UniProt P55795 103-225, looked up)
chain: B1 chain with P107L

- Kd [2]: 40 nM
Molecule: EVRTHYDPPRKLMAMQRPGPYDRPGAGRGYNSIGRG (domain or fragment, UniProt P55795 190-225, looked up) [MBP-HNRNPH2(190-225)]
